Values belong to the molecule of their own block, whether it stands above or below them.
Legend:
TE14 cells = test: ADC assay combining anti-GPC-1 antibody and MMAF binding secondary antibody, TE14 cells; format: cell-based; conditions: primary antibody plus MMAF secondary antibody
Description: FIG. 1 depicts a schematic diagram of an ADC used in an assay. This Example used a secondary antibody (MORADEC) to the anti-GPC1 antibody made in Example 1, to which an anticancer agent (MMAF) was bound via a linker.
2000 TE14 cells were added to a 96-well plate at 80 μl. The cells were cultured overnight at 37° C. in a 5% CO2 incubator. The next day, 10 μl of an anticancer agent bound secondary antibody and 10 μl of a primary antibody concentrated 10-fold relative to the final concentration was added to each well, so that the total amount was 100 μl. The cells were cultured for 6 days at 37° C. in a 5% CO2 incubator. The cell viability was measured by using a CellTiter-Glo Luminescent Cell Viability Assay reagent to detect the amount of ATP. RPMI1640+10% FBS+1% PS was used as the medium. The final concentrations of the primary antibody were 0, 0.004, 0.0156, 0.0625, 0.25, and 1.0 nM. 2 μg/ml of Fab-aMFc-CL-MMAF (model number: AM202AF-50, Moradec) was used as the secondary antibody.

DU145 cells = test: ADC assay combining anti-GPC-1 antibody and MMAF binding secondary antibody in DU145 cells; format: cell-based; conditions: primary antibody plus MMAF secondary antibody, 3 days
Description: 2000 DU145 cells were added to a 96-well plate at 80 μl. The cells were cultured overnight at 37° C. in a 5% CO2 incubator. The next day, 10 μl each of anticancer agent binding secondary antibody (2 μg/ml) and primary antibody concentrated 10-fold relative to the final concentration was added to each well, so that the total amount was 100 μl. The cells were cultured for 3 days at 37° C. in a 5% CO2 incubator. The cell viability was measured by using a CellTiter-Glo Luminescent Cell Viability Assay reagent to detect the amount of ATP. RPMI1640+10% FBS+1% PS was used as the medium. The final concentrations of the primary antibodies were […]. 2 μg/ml of Fab-aMFc-CL-MMAF (model number AM202AF-50, Moradec) was used as the secondary antibody. The EC50 value was analyzed with GraphPad Prism 6. The same experiment was conducted using 4000 MDA-MB231 cells as the control.

EC50 values against TE14 cells (TE14 cells): excellent EC50 values
EC50 values against DU145 cells (DU145 cells): excellent EC50 values
B1: clone 01a016: anti-human Glypican-1 antibody, heavy chain SEQ ID NO: 134, light chain SEQ ID NO: 136 (antibody)
heavy: MKHLWFFLLLVAAPRWVLSQVHLQQSGPELVKPGASVKISCKASGYTFTDYYINWVKQKPGQGLEWIGYIDPYNDGSKYNEKFKGKATLTSDKSSSTAYMELSSLTSEDSAVYYCARTPYYSFYSYGFYFDYWGQGTTLTVSSAKTTAPSVYPLAPVCGDTTGSSVTLGCLVKGYFPEPVTLTWNSGSLSSGVHTFPAVLQSDLYTLSSSVTVTSSTWPSQSITCNVAHPASSTKVDKKIEPRGPTIKPCPPCKCPAPNLLGGPSVFIFPPKIKDVLMISLSPIVTCVVVDVSEDDPDVQISWFVNNVEVHTAQTQTHREDYNSTLRVVSALPIQHQDWMSGKEFKCKVNNKDLPAPIERTISKPKGSVRAPQVYVLPPPEEEMTKKQVTLTCMVTDFMPEDIYVEWTNNGKTELNYKNTEPVLDSDGSYFMYSKLRVEKKNWVERNSYSCSVVHEGLHNHHTTKSFSRTPGK
light: MRLLAQLLGLLMLWVPGSSGDIVLTQSPASLAVSLGQRATISCRASKSVSTSSYSYMHWYQQKPGQPPKLLIKYASYLESGVPARFSGSGSGTDFTLNIHPVEEEDAATYYCQHSREFPLTFGAGTKLELKRADAAPTVSIFPPSSEQLTSGGASVVCFLNNFYPKDINVKWKIDGSERQNGVLNSWTDQDSKDSTYSMSSTLTLTKDEYERHNSYTCEATHKTSTSPIVKSFNRNEC

EC50 values against TE14 cells (TE14 cells): excellent EC50 values
EC50 values against DU145 cells (DU145 cells): excellent EC50 values
B2: clone 01a026: anti-human Glypican-1 antibody, heavy chain SEQ ID NO: 146, light chain SEQ ID NO: 148 (antibody)
heavy: MKHLWFFLLLVAAPRWVLSQVHLQQSGAELVRPGTSVKMSCKAAGYTFTNYWIGWVKQRPGHGLEWIGDIYPGGGYTHYNEKFKGKATLTADTSSSTAYMQLSSLTSEDSAIYYCARERVYYDGSRFFDVWGAGTTVTVSSAKTTAPSVYPLAPVCGDTTGSSVTLGCLVKGYFPEPVTLTWNSGSLSSGVHTFPAVLQSDLYTLSSSVTVTSSTWPSQSITCNVAHPASSTKVDKKIEPRGPTIKPCPPCKCPAPNLLGGPSVFIFPPKIKDVLMISLSPIVTCVVVDVSEDDPDVQISWFVNNVEVHTAQTQTHREDYNSTLRVVSALPIQHQDWMSGKEFKCKVNNKDLPAPIERTISKPKGSVRAPQVYVLPPPEEEMTKKQVTLTCMVTDFMPEDIYVEWTNNGKTELNYKNTEPVLDSDGSYFMYSKLRVEKKNWVERNSYSCSVVHEGLHNHHTTKSFSRTPGK
light: MRLLAQLLGLLMLWVPGSSGDIVMSQSPKFLPVSAGDRVTMTCKASQSVGNNVAWYQQKPGQSPKLLIYYASNRYTGVPDRFTGSGSGTDFTFTISSVQVEDLAVYFCQQHYSSPWTFGGGTKLEIKRADAAPTVSIFPPSSEQLTSGGASVVCFLNNFYPKDINVKWKIDGSERQNGVLNSWTDQDSKDSTYSMSSTLTLTKDEYERHNSYTCEATHKTSTSPIVKSFNRNEC

From patent publication US20200308299A1, “ANTI-GPC-1 ANTIBODY” (National University Corporation Kochi University, priority 2017, published 2020)
